{"source": "paper PMC3927786", "about": "(Chemistry & biology, 2013)", "proteins": {"B1": {"name": "pimeloyl-CoA ligase (BioW) (enzyme, UniProt P53559 1-259, looked up)", "chain": "MMQEETFYSVRMRASMNGSHEDGGKHISGGERLIPFHEMKHTVNALLEKGLSHSRGKPDFMQIQFEEVHESIKTIQPLPVHTNEVSCPEEGQKLARLLLEKEGVSRDVIEKAYEQIPEWSDVRGAVLFDIHTGKRMDQTKEKGVRVSRMDWPDANFEKWALHSHVPAHSRIKEALALASKVSRHPAVVAELCWSDDPDYITGYVAGKKMGYQRITAMKEYGTEEGCRVFFIDGSNDVNTYIHDLEKQPILIEWEEDHDS"}}, "target": "the molecule itself", "test": "SEC"}
{"protein": "B1", "values": [{"measurement": "stoichiometry N", "value": 2}]}
